This is an account of results in patent US20200237928A1 (UNIVERSITY OF MIAMI, published 2020).

The target in test [1] is T1, recombinant mouse IL4Rα extracellular domain (Ile26-Arg233), cleaved by factor Xa from the IL4Rα/human IgG1 … (mouse, UniProt P16382 26-233).
T1 construct: range 26-233; Factor Xa cleavage in the IEGRMD spacer may leave some spacer residues at the C-terminus; Covalently linked to M-450 epoxy beads; also called recombinant IL4Rα; IL4Rα conjugated epoxybeads
T1 sequence (looked up): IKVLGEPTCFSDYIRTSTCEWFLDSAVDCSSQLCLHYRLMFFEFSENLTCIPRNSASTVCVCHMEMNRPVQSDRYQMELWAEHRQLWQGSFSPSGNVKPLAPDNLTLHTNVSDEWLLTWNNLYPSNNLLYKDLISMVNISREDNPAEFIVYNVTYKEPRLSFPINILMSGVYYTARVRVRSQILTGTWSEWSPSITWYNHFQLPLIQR
In words: FACS on IL4Rα-conjugated epoxybeads; 4PD against the FITC-peptide. As to the method: (§1) Epoxybeads were conjugated with recombinant IL4Rα and used as binding target of 4PD or of the targeting peptide. Briefly, the recombinant chimeric IL4Rα protein composed by the mouse IL4Rα (Ile26 Arg233) and the human IgG1 (Pro100 Lys330) linked by the IEGRMD spacer polypeptide and generated in the NSO myeloma cell line was purchased by R&D systems (Minneapolis, Minn., USA). The protein was treated for 24 hours with 1.5% w/w factor Xa (SIGMA. St. Louis, Mo., USA) in tris-HCl (20 mM) and NaCl (200 mM) to cleave the IL4Rα extracellular domain. Factor Xa was removed by the solution using the Factor Xa removal resin (QIAGEN, Valencia, Calif., USA) and following the manufacturer instruction. IgG-linker fraction was removed from the solution by using protein-A conjugated magnetic beads (Invitrogen, Carlsbad, Calif., USA). The purity obtained by this procedure assessed by SDS PAGE was higher than 95% with only trace of IgG (data not shown). The obtained IL4Rα fraction was linked to epoxy magnetic beads M-450 by an overnight (ON) incubation at room temperature (RT) of 20×10⁶ beads with 10 μg of protein in a final volume of 1 mL in a sodium phosphate buffer (pH:8.0). […] Correct conjugation was evaluated via FACs after labeling with an anti-IL4Rα antibody.
(§2) Next, the binding of the 4PD to the IL4Rα was evaluated. […] Beads were washed twice with PBS and the binding evaluated by FACS.

In test [2] the target is T1, recombinant mouse IL4Rα extracellular …. In words: FACS; Alexa555-shRNA/4PD complexes titrated on IL4Rα-conjugated epoxybeads, 10 min at RT; apparent Kd; peptide conjugated to the dendrimer (4PD). The procedure: as §1, §2
In general terms: Flow cytometry measures light scatter and fluorescence of single cells or particles in a stream.

Side-chain parts run from the residue outwards. [ ]: non-standard residue; d: D form. Abu = CC[C@H](N)C(=O)O; Ahx = NCCCCCC(=O)O

B1: 4PD: G5 PAMAM dendrimer conjugated to the IL4Rα targeting peptide (acetyl)-LQRLFRAFR[Abu]LD[Ahx]C(amide), loaded with Alexa555-conjugated shRNA (other)
peptide: Ac-LQRLFRAFR[Abu]LD[Ahx]C([m‑maleimidobenzoyl-G5 PAMAM dendrimer])-NH2
modifications: also: several peptide copies on one G5 PAMAM dendrimer, complexed with Alexa555-labelled shRNA
notes: Not a plain protein: several copies of the peptide sit on a G5 PAMAM dendrimer (28,826 Da), complexed electrostatically with Alexa555-labelled scrambled shRNA; also called Alexa555-shRNA/4PD complexes; 4PD/Alexa555 complexes
As to B1, the “fold increase of apparent Kd (avidity) against the free peptide” value in test [1] is roughly 1000 times. The Kd in test [2] worked out at 3000 nM.
